# Columns and labels:
# [1] = biological target: T1, HA-tagged SQSTM1 (Homo sapiens (Human)., UniProt Q13501); assay: proximity ligation; pooled screen (isPLA-seq): Flag-tagged sdAb library co-transfected with HA-tagged SQSTM1 into HEK293T cells, fixed after 48 h, isPLA with anti-HA and anti-Flag antibodies, positive cells sorted by FACS, three rounds, CDR3 sequenced; details: partners not purified
# T1 construct: autophagy receptor SQSTM1, full length; the printed limits 1-440 fit the human protein; also called HA-tagged bait; full length; source: HEK293T, transfected, in fixed cells (screen)
# [2] = biological target: T2, HA-tagged SQSTM1 C-terminal region (221–440 aa) (Homo sapiens (Human)., UniProt Q13501); assay: proximity ligation; single sdAb DNA transfected along with HA-tagged SQSTM1 or its truncations; isPLA with anti-HA and anti-Flag antibodies 48 h after transfection; details: partners not purified
# T2 construct: also called C-terminal SQSTM1; source: transfected, in cells (isPLA, co-IP)
# [3] = biological target: T3, HA-tagged SQSTM1 N-terminal region (1–220 aa) (Homo sapiens (Human)., UniProt Q13501); assay: as above; details: partners not purified
# T3 construct: SQSTM1, residues 1-220; also called N-terminal region of SQSTM1 (1–220 aa); source: transfected, in cells (isPLA)
# [4] = biological target: GST-SQSTM1, 221–440 aa (Homo sapiens (Human)., UniProt Q13501); assay: ITC; details: both partners purified
# [5] = biological target: T4, Sqstm1 (endogenous, LLC1 cells) (Mus musculus (Mouse)., UniProt Q64337); assay: far-Western, overlay or dot blot; details: one partner purified
# T4 construct: mouse Sqstm1, endogenous in Lewis lung carcinoma (LLC1) cells; also called denatured Sqstm1; source: endogenous, LLC1 cells (lysate for Western blot; fixed cells for staining)
Binder,binding result [1],further results
"anti-SQSTM1 sdAb #8 (Flag-tagged, sdAb library) (VHH, 21-aa CDR3 in place of the CDR3 of cAbBCII10; source: HEK293T, transfected (sdAb library in pcDNA3.1), in fixed cells; not shown: 3x Flag, C-terminal, kept) VHH: QVQLVESGGGSVQAGGSLRLSCTASGGSEYSYSTFSLGWFRQAPGQEREAVAAIASMGGLTYYADSVKGRFTISRDNAKNTVTLQMNNLKPEDTAIYYCAAARVFMPCTPSHIIGAMCTLACWGQGTQVTVSS",binds,–
"anti-SQSTM1 sdAb #7 (Flag-tagged, sdAb library) (VHH, 21-aa CDR3 in place of the CDR3 of cAbBCII10; source: HEK293T, transfected (sdAb library in pcDNA3.1), in fixed cells; not shown: 3x Flag, C-terminal, kept) VHH: QVQLVESGGGSVQAGGSLRLSCTASGGSEYSYSTFSLGWFRQAPGQEREAVAAIASMGGLTYYADSVKGRFTISRDNAKNTVTLQMNNLKPEDTAIYYCAAAYIAKRPCCDCREVQWGSRTCWGQGTQVTVSS",binds,–
"anti-SQSTM1 sdAb #9 (Flag-tagged, sdAb library) (VHH, 21-aa CDR3 in place of the CDR3 of cAbBCII10; source: HEK293T, transfected (sdAb library in pcDNA3.1), in fixed cells; not shown: 3x Flag, C-terminal, kept) VHH: QVQLVESGGGSVQAGGSLRLSCTASGGSEYSYSTFSLGWFRQAPGQEREAVAAIASMGGLTYYADSVKGRFTISRDNAKNTVTLQMNNLKPEDTAIYYCAADRGCHSTLGSRISFFKGCIIGWGQGTQVTVSS",binds,–
"Flag-tagged anti-SQSTM1 sdAb clone #1 (VHH, 21-aa CDR3 in place of the CDR3 of cAbBCII10; also called anti-SQSTM1 clone #1; sdAb #1; source: HEK293T, transfected (sdAb library in pcDNA3.1), in fixed cells; not shown: 3x Flag, C-terminal, kept) VHH: QVQLVESGGGSVQAGGSLRLSCTASGGSEYSYSTFSLGWFRQAPGQEREAVAAIASMGGLTYYADSVKGRFTISRDNAKNTVTLQMNNLKPEDTAIYYCAAEGLVYWTTKKSFGGCLLHDWSWGQGTQVTVSS",binds,binding result [2]: binds; binding result [3]: no binding
"purified anti-SQSTM1 sdAb clone #1, C-terminal ETA-fused and Flag-tagged (VHH, also called anti-SQSTM1 sdAb #1; ETA-tagged anti-SQSTM1 sdAb) VHH: QVQLVESGGGSVQAGGSLRLSCTASGGSEYSYSTFSLGWFRQAPGQEREAVAAIASMGGLTYYADSVKGRFTISRDNAKNTVTLQMNNLKPEDTAIYYCAAEGLVYWTTKKSFGGCLLHDWSWGQGTQVTVSS",–,Kd [4]: 8.8 ± 1.39 µM
purified anti-SQSTM1 sdAb clone #2 (VHH) VHH: QVQLVESGGGSVQAGGSLRLSCTASGGSEYSYSTFSLGWFRQAPGQEREAVAAIASMGGLTYYADSVKGRFTISRDNAKNTVTLQMNNLKPEDTAIYYCAARAGVCGVVGSFSMYTIGNWVYWGQGTQVTVSS,–,binding result [5]: binds
